In patent US20240285753A1 (DUKE UNIVERSITY, published 2024):
Where two headings read alike, the source gives them in different places.

Tests used:
S2hlx-Ex25 [1] = molecular target: T1, S2hlx-Ex25; assay: ELISA; antigen coated, mAb titrated
T1 chain: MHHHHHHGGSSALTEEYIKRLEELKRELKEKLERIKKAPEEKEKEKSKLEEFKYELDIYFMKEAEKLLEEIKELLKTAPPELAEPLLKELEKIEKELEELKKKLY

[2] = molecular target: T2, SARS-CoV-2 spike (WA-2, 2P) (SARS-CoV-2, UniProt P0DTC2 14-1208); assay: ELISA, coated antigen, mAb titrated
S2hlx-Ex54 [3] = molecular target: T3, S2hlx-Ex54; assay: SPR, single cycle; mAb captured on Protein A, epitope scaffold as analyte
T3 chain: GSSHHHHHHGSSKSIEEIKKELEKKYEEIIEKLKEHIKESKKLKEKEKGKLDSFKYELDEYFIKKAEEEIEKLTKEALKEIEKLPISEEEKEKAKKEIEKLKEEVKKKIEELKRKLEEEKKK

S2hlx-Ex37 [4] = molecular target: T4, S2hlx-Ex37; assay: as above
T4 chain: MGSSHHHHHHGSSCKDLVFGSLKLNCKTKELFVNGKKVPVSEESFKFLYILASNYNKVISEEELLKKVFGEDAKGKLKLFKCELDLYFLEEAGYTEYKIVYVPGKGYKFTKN

S2hlx-Ex46 [5] = molecular target: T5, S2hlx-Ex46; assay: as above
T5 epitope scaffold: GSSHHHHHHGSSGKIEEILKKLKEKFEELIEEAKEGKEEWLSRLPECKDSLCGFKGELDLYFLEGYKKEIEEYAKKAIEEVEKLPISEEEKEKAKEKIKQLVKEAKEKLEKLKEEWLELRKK

S2hlx-Ex15 F1148A = molecular target: T6, S2hlx-Ex15 F1148A; assay: ELISA; antigen coated, mAb titrated
T6 epitope scaffold: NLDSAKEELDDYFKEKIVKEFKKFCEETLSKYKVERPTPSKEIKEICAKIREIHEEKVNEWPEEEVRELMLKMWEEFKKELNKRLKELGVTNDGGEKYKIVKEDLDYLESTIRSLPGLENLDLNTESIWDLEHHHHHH

S2hlx-Ex15 [6] = molecular target: T7, S2hlx-Ex15; assay: ELISA; antigen coated, mAb titrated
T7 chain: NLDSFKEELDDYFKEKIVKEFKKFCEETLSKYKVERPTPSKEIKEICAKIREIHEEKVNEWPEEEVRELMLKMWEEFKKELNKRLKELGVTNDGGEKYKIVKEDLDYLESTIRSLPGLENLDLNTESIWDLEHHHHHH

S2hlx-Ex25 [7] = molecular target: T1, S2hlx-Ex25; assay: SPR, mAb captured, antigen as analyte
S2hlx-Ex34 [8] = molecular target: T8, S2hlx-Ex34; assay: SPR, mAb captured, antigen as analyte
T8 chain: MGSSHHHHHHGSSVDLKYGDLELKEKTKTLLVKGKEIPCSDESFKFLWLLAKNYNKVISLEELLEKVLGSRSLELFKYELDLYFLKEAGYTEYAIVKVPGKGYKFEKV

S2hlx-Ex8-Trx = molecular target: T9, S2hlx-Ex8-Trx; assay: SPR, mAb captured, antigen as analyte
T9 chain: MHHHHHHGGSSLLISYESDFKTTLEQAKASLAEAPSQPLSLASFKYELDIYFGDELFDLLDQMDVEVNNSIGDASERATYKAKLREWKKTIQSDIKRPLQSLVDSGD

S2hlx-Ex54 [9] = molecular target: T3, S2hlx-Ex54; assay: ELISA; antigen coated, mAb titrated
S2hlx-Ex34 [10] = molecular target: T8, S2hlx-Ex34; assay: ELISA; antigen coated, mAb titrated
S2hlx-Ex46 [11] = molecular target: T5, S2hlx-Ex46; assay: ELISA; antigen coated, mAb titrated
S2hlx-Ex17 [12] = molecular target: T10, S2hlx-Ex17; assay: SPR, mAb captured, antigen as analyte
T10 chain: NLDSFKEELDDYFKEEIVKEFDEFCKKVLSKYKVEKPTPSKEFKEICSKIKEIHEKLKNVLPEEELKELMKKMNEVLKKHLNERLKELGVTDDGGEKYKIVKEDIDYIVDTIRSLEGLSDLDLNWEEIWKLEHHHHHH

S2hlx-Ex20 [13] = molecular target: T11, S2hlx-Ex20; assay: SPR, mAb captured, antigen as analyte
T11 chain: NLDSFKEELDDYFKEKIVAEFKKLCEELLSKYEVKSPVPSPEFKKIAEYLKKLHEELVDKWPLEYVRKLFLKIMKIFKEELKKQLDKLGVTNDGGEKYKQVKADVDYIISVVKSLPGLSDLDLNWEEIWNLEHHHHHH

S2hlx-Ex15 [14] = molecular target: T7, S2hlx-Ex15; assay: SPR, mAb captured, antigen as analyte
S2hlx-Ex2-Trx = assay: ELISA, coated antigen, mAb titrated
S2hlx-Ex4-Trx = assay: ELISA, coated antigen, mAb titrated
[15] = molecular target: SARS-CoV-2 spike (WA-2, 2P) (SARS-CoV-2, UniProt P0DTC2 14-1208)
S2hlx-Ex34 [16] = molecular target: T8, S2hlx-Ex34; assay: ELISA; antigen coated, mAb titrated
S2hlx-Ex35 = molecular target: T12, S2hlx-Ex35; assay: ELISA; antigen coated, mAb titrated
T12 chain: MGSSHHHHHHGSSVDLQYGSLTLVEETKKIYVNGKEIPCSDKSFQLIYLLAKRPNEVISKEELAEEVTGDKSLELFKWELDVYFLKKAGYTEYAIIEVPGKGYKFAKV

S2hlx-Ex25 [17] = molecular target: T1, S2hlx-Ex25; assay: ELISA; antigen coated, mAb titrated
S2hlx-Ex54 [18] = molecular target: T3, S2hlx-Ex54; assay: SPR, mAb captured, scaffold as analyte
S2hlx-Ex34 [19] = molecular target: T8, S2hlx-Ex34; assay: SPR, mAb captured, scaffold as analyte
S2hlx-Ex37 [20] = molecular target: T4, S2hlx-Ex37; assay: SPR, mAb captured, scaffold as analyte
S2hlx-Ex17 [21] = molecular target: T10, S2hlx-Ex17; assay: SPR, mAb captured, antigen as analyte
S2hlx-Ex20 [22] = molecular target: T11, S2hlx-Ex20; assay: SPR, mAb captured, antigen as analyte
S2hlx-Ex15 [23] = molecular target: T7, S2hlx-Ex15; assay: SPR, mAb captured, antigen as analyte
FP-13 = molecular target: T13, FP-13; assay: ELISA, coated antigen, mAb titrated
T13 epitope scaffold: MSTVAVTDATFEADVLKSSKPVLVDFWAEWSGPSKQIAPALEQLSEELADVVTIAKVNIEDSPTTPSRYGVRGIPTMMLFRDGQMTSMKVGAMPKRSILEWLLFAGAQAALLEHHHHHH

[24] = molecular target: T2, SARS-CoV-2 spike (WA-2, 2P); assay: ELISA, coated spike, mAb titrated
[25] = molecular target: T2, SARS-CoV-2 spike (WA-2, 2P); assay: ELISA, coated spike, mAb titrated; remark: listed apart in the source

B1: Cov44-26 (antibody, V domains shown)
VH: QVQLVQSGAEVKKPGASVKVSCKASGYTFSNFYMNWVRQAPGQGLEWVGLISPSAGYTAYAQMFQGRVTMTRDTSTSTVYMELSSLRSEDTAVYYCARVAVAGPNDYWGQGTLVTVSS
VL: EIVLTQSPGTLSLSPGERATLSCRASQSISSSYLAWYQQKPGQAPRLVIFAASTRATGIPDRFSGSGSGTDFTLTITRLEPEDFALYYCQHYRSSPPLWTFGQGTKVEIR
In the case of B1, the “EC50 (read off the curve)” value (S2hlx-Ex25 [1]) is reported as roughly 0.02 µg/mL.

B2: inferred UCA of DH1501.1, DH1501.2 and DH1501.3 (antibody, V domains shown)
VH: QVQLVQSGAEVKKPGASVKVSCKASGYTFTSYYMHWVRQAPGQGLEWMGIINPSGGSTSYAQKFQGRVTMTRDTSTSTVYMELSSLRSEDTAVYYCARMSRYGAFDIWGQGIMVTVSS
VL: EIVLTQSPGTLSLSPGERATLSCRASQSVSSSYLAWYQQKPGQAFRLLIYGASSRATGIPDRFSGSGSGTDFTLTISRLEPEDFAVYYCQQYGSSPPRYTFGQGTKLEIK
For B2, the “EC50 (read off the curve)” value [2] was roughly 0.02 µg/mL.

B3: CC40.8 mAb (antibody, V domains shown)
VH: EVQLLESGGGLVQPGGSLRLSCAASGFTFSSYVMTWARQAPGKGLEWVSAISGTGYTYYADSVKGRFTVSRDNSKNTLFLQMSSLRAEDTAVYYCAITMAPVVWGQGTTVTVSS
VL: SYELTQPPSVSVSPGQTARITCSGDALPKRYAYWYQQKSGQAPILVIYEDKKRPSGIPERLSGSKSGTVATLTISGAQVEDEADYYCYSTDSSGNHAVFGGGTQLTVL
Binder B3 has a Kd (S2hlx-Ex54 [3]) of 150 nM, a Kd (S2hlx-Ex37 [4]) of 849 nM and a Kd (S2hlx-Ex46 [5]) of 21500 nM. For the same binder, the “EC50 (read off the curve)” value (S2hlx-Ex15 F1148A) was roughly 0.02 µg/mL, the “EC50 (read off the curve)” value (S2hlx-Ex15 [6]) was roughly 0.02 µg/mL and the Kd (S2hlx-Ex25 [7]) was 12100 nM. For the same binder, the Kd (S2hlx-Ex34 [8]) was 3880 nM, the Kd (S2hlx-Ex8-Trx) was 1230 nM and the “EC50 (read off the curve)” value (S2hlx-Ex54 [9]) was roughly 0.04 µg/mL. For the same binder, the “EC50 (read off the curve)” value (S2hlx-Ex25 [1]) was roughly 0.2 µg/mL, the “EC50 (read off the curve)” value (S2hlx-Ex34 [10]) was roughly 0.4 µg/mL and the “EC50 (read off the curve)” value (S2hlx-Ex46 [11]) was roughly 0.2 µg/mL. The Kd (S2hlx-Ex17 [12]) was 27.1 nM, the Kd (S2hlx-Ex20 [13]) was 10.6 nM and the Kd (S2hlx-Ex15 [14]) was 3.4 nM. For the same binder, the “EC50 (read off the curve)” value (S2hlx-Ex2-Trx) was roughly 0.1 µg/mL, the “EC50 (read off the curve)” value (S2hlx-Ex4-Trx) was roughly 0.05 µg/mL and the Kd [15] was 2.7 nM. The “EC50 (read off the curve)” value (S2hlx-Ex34 [16]) was roughly 0.1 µg/mL, the “EC50 (read off the curve)” value (S2hlx-Ex35) was roughly 0.8 µg/mL and the “EC50 (read off the curve)” value (S2hlx-Ex25 [17]) was roughly 0.01 µg/mL. For the same binder, the Kd (S2hlx-Ex54 [18]) was 150 nM, the Kd (S2hlx-Ex34 [19]) was 486 nM and the Kd (S2hlx-Ex37 [20]) was 849 nM. It also gave a Kd (S2hlx-Ex17 [21]) of 27.1 nM, a Kd (S2hlx-Ex20 [22]) of 10.6 nM and a Kd (S2hlx-Ex15 [23]) of 3.4 nM.

B4: COV44-79 (antibody, V domains shown)
VH: QVQLVESGGGVVQPGRSLRLSCAASGLTFSGYAMHWVRQAPGKGLEWVAVISRDARNKYYADSVKGRFTISRDNSKKTVYLEMNSLRVEDTAVYYCAILIIPGITEPGSPDALDIWGQGTMVSVSS
VL: DIQMTQSPSSMSASVGDRVTITCRASQDISKWLAWYQQRPGKAPKLLIYAASSLQSGVPSRFSGSGSGTDFTLTISSLQPEDFATYYCQQASSFPWSITFGQGTRLEIR
In the case of B4, the “EC50 (read off the curve)” value (FP-13) is reported as roughly 3 µg/mL.

B5: DH1509 (antibody, V domains shown)
VH: QVQLVESGGGVVQPGRSLRLSCAASGFTLSSHGIHWVRQAPGKGLEWVAVTSFDGRNKKFGDSVKGRFTISRDNSKNTVYLQMNSLRTEDTAVYYCAKDWGDDYSRWYFDLWGRGTLVTVSS
VL: DIQMTQSPSSLSASVGDRVTITCQASHDITKYLNWYQQKPGRAPKLLIYDASNLKTGVPSRFSGSGSGTDFTFTITSLQPEDLATYYCQQSDVLPITFGQGTRLEIK
With B5 the “EC50 (read off the curve)” value [24] was roughly 0.6 µg/mL.

B6: DH1498 (antibody, V domains shown)
VH: QVQLQESGPGLVKPSETLSLTCAVSGGSVSSDTYYWSWIRQPPGKGLEWIGYIYNSGSTNYNPSLKSRVTISVDTSKSQFSLNLGSVTAADTAVYYCAREGAGTYPPKNDAFDIWGQGTLVTVSS
VL: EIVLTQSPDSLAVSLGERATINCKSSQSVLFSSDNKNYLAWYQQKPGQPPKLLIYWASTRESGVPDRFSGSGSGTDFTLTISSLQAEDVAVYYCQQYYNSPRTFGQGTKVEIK
With B6 the “EC50 (read off the curve)” value [25] was roughly 0.04 µg/mL.
